Results as given in article PMC11736430, “Embedding a ribonuclease in the spore crust couples gene expression to spore development in Bacillus subtilis” (Nucleic Acids Research, 2025).

Target: the molecule itself
Assay: SEC; KapD alone on the gel-filtration column; fractions 8-16 blotted with anti-KapD; size against a molecular weight marker

B1: KapD-6xHis (enzyme, B. subtilis, UniProt O05231 1-205, looked up)
chain: MTTNSLLIIDFEFTMPDGKYSPQNFFPEIIEAGIVKSIDDEVVETFSSYVRPKKFPKLTKRCKSFLKITQKQVDEGMRFEDFIRKLNELDPEKNSTIITWGNMDMKVLKQNCMFNHIPFPFKGEMRDLSLEYKNFFGDRTLTGLWKAAEEYGDSGTGTHHKALDDALTAYKLFKLVEQDKQYLEKPKPPTIGERIDLTELLKRAT
notes: KapD, 3'-exoribonuclease of the DEDDh family, Bacillus subtilis; kapD gene amplified with oligos CC073/074 and cloned in pET28a (EcoRI/SalI); also called KapD-His; His-tagged KapD; source: E. coli BL21 CodonPlus RIL (strain CCE095); in lysate (cells lysed together with the CotY strain), and purified (His-Trap, gel filtration) for KapD alone; not shown: His6, C-terminal, kept
  stoichiometry N: 2
